Source: patent US12742015 (dated 2026)

How the values were obtained:
FcγRIIb = target: T1, FcγRIIb (human, UniProt P31994); assay: SPR
T1 chain: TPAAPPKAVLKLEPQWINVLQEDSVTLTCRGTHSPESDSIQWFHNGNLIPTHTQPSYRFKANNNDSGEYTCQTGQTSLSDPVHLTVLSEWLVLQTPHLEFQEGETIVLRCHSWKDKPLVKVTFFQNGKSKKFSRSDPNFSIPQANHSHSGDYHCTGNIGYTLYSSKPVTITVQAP

FcγRIIa 167R = target: T2, FcγRIIa 167R (human, UniProt P12318); assay: SPR
T2 chain: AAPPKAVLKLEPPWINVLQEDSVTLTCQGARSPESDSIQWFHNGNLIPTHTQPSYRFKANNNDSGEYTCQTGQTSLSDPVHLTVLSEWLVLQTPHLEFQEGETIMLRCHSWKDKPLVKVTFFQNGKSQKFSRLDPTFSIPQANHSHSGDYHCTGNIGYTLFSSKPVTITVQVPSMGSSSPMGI

FcRn = FcRn (human, UniProt P55899); assay: SPR, pH 7.4
OX40 on T cells [1] = target: T3, OX40 on T cells (human, UniProt P43489); assay: other, CD4+ T cells, apparent affinity
T3 chain: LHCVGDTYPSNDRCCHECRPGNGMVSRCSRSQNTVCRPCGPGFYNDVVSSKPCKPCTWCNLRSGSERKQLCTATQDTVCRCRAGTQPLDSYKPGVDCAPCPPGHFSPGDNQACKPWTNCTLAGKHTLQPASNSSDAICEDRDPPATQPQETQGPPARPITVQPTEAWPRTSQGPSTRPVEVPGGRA

OX40 on T cells [2] = target: T3, OX40 on T cells; assay: other, CD8+ T cells, apparent affinity

Binder | binding result (FcγRIIb) | binding result (FcγRIIa 167R) | binding result (FcRn) | Kd (OX40 on T cells [1]) [nM] | Kd (OX40 on T cells [2]) [nM]
MAB10 full (antibody) chain 1: QVTLKESGPALVKPTQTLTLTCSFSGFSLSTSGMGVGWIRQPPGKALEWIAHIWWDDDKYYNTALKTRLTISKDTSKNQVVLTMTNMDPVDTATYYCARIDWDGFAYWGQGTLVTVSSASTKGPSVFPLAPSSKSTSGGTAALGCLVKDYFPEPVTVSWNSGALTSGVHTFPAVLQSSGLYSLSSVVTVPSSSLGTQTYICNVNHKPSNTKVDKKVEPKSCDKTHTCPPCPAPELLGGPSVFLFPPKPKDTLYITREPEVTCVVVDVSHEDPEVKFNWYVDGVEVHNAKTKPREEQYNSTYRVVSVLTVLHQDWLNGKEYKCKVSNKALPAPIEKTISKAKGQPREPQVYTLPPSRDELTKNQVSLTCLVKGFYPSDIAVEWESNGQPENNYKTTPPVLDSDGSFFLYSKLTVDKSRWQQGNVFSCSVMHEALHNHYTQKSLSLSPGK chain 2: EIVLTQSPATLSLSPGERATLSCRASSSVSYMHWYQQKPGQAPRPWIYATSNRATGIPARFSGSGSGTDYTLTISSLEPEDFAVYYCQQFGAWPWTFGQGTKVEIKRTVAAPSVFIFPPSDEQLKSGTASVVCLLNNFYPREAKVQWKVDNALQSGNSQESVTEQDSKDSTYSLSSTLTLSKADYEKHKVYACEVTHQGLSSPVTKSFNRGEC | no binding | no binding | no binding | – | –
GBR 830 full (antibody) chain 1: not shown chain 2: EIVLTQSPATLSLSPGERATLSCRASSSVSYMHWYQQKPGQAPRPWIYATSNRATGIPARFSGSGSGTDYTLTISSLEPEDFAVYYCQQWSSNPWTFGQGTKVEIKRTVAAPSVFIFPPSDEQLKSGTASVVCLLNNFYPREAKVQWKVDNALQSGNSQESVTEQDSKDSTYSLSSTLTLSKADYEKHKVYACEVTHQGLSSPVTKSFNRGEC | – | – | no binding | – | –

Continued, values first:

binding result (FcγRIIb) | binding result (FcγRIIa 167R) | binding result (FcRn) | Kd (OX40 on T cells [1]) [nM] | Kd (OX40 on T cells [2]) [nM] | Binder
– | – | no binding | – | – | MAB1 full (antibody) chain 1: not shown chain 2: EIVLTQSPATLSLSPGERATLSCRASSSVSYMHWYQQKPGQAPRPWIYATSNRATGIPARFSGSGSGTDYTLTISSLEPEDFAVYYCQQFGAWPWTFGQGTKVEIKRTVAAPSVFIFPPSDEQLKSGTASVVCLLNNFYPREAKVQWKVDNALQSGNSQESVTEQDSKDSTYSLSSTLTLSKADYEKHKVYACEVTHQGLSSPVTKSFNRGEC
– | – | – | 1.25 | 3.46 | GBR 830 (OX40 binding) (antibody, V domains shown) VH: QVTLKESGPALVKPTQTLTLTCSFSGFSLSTSGMGVGWIRQPPGKALEWIAHIWWDDDKYYNTALKTRLTISKDTSKNQVVLTMTNMDPVDTATYYCARIDWDGFAYWGQGTLVTVSS VL: EIVLTQSPATLSLSPGERATLSCRASSSVSYMHWYQQKPGQAPRPWIYATSNRATGIPARFSGSGSGTDYTLTISSLEPEDFAVYYCQQWSSNPWTFGQGTKVEIK
